{
  "source": "patent US9290544B2",
  "about": "“Methods for making and using molecular switches involving circular permutation” (priority 2004, dated 2016)",
  "key": {"[1]": {"experiment": "Nitrocefin hydrolysis in soluble fraction of cell lysates with and without 5 mM maltose (screen and confirmation of positives)", "type": "biochemical", "details": "50 μM nitrocefin; 5 mM maltose; 100 mM sodium phosphate buffer, pH 7.0", "experimental": "Next, 50 μl of PopCulture (Novagen) and 2.5 unit of benzonase nuclease was added to each well and incubated for 15 minutes at room temperature to lyse the cells. The cells debris and any unlysed cells were pelleted by centrifugation and supernatant was recovered. In 96-well format, 60 μl of lysate was assayed for hydrolysis of nitrocefin (50 μM) by monitoring the increase in absorbance at 490 nm in 100 mM sodium phosphate buffer, pH 7.0, both with and without 5 mM maltose. Any lysate in which there was a difference in rate of more than 2-fold (between with and without maltose) was selected for retesting and further investigation.\nLibrary members identified as having more than 200% switching activity in the 96-well plate screen were grown 24-48 hours in 100 ml LB media in 500 ml shaker flasks at 22° C. without IPTG. The cells were pelleted and resuspended in 8 ml assay buffer (100 mM sodium phosphate buffer, pH 7.0) and lysed by French press. The soluble fraction of this lysate was assayed for hydrolysis of nitrocefin (50 μM) at 22° C. as previously described (Guntas and Ostermeier 2004) both with and without 5 mM maltose. Initial rates were determined from absorbance at 486 nm monitored as a function of time. The enzyme was incubated at the assay temperature in the absence or presence of 5 mM maltose for four minutes prior to performing the assay. All assays contained 100 mM sodium phosphate buffer, pH 7.0. Library members for which there was a difference in the initial rate of more than about 2-fold were sequenced (Table 4). Switches RG-5-169 and RG-200-13 were also assayed in the presence of 5 mM sucrose or 5 mM glucose."}, "[2]": {"experiment": "Magnitude of switching in soluble fraction of cell lysates, Libraries 2-7 (FIG. 13)", "type": "biochemical", "details": "room temperature, 50 μM nitrocefin", "experimental": "Libraries were plated on LB plates containing […] at the indicated concentrations of ampicillin and incubated at 37° C. overnight. From these plates, colonies were picked to inoculate 1 ml LB media (supplemented with 50 μg/ml chloramphenicol and 1 mM IPTG) in 96-well format. Lysates from these cultures were assayed for nitrocefin hydrolysis activity in the presence and absence of maltose as described above.\nLibraries 2-7 were plated on different levels of ampicillin in the presence of 50 mM maltose. Colonies that grew were used to inoculate 96-well plates. The resulting cultures were lysed and assayed at room temperature for nitrocefin hydrolysis in the presence and absence of maltose in 96-well format.\nFIG. 13 is a schematic depiction of the library construction schemes for Libraries 2-7, and of particular switches identified from these libraries. The arrowheads indicate the sites of insertion. Multiple arrowheads on one gene indicate random insertion sites. Dashed arrows indicate a particular switch on which successive libraries were based. The magnitude of switching was determined on the soluble fraction of cell lysates at room temperature using 50 μM nitrocefin. For switches with a rate increase in the presence of maltose, the ratio is of “with maltose” to “without maltose” (indicated by no sign in front of the value). […]"}, "[3]": {"experiment": "Apparent dissociation constant for maltose from initial rate of nitrocefin hydrolysis", "type": "binding", "details": "25° C.", "experimental": "[formula] where ΔF is the change in fluorescence intensity, ΔFmax is the difference in fluorescence between no maltose and saturating amounts of maltose and [L] is the maltose concentration. The fluorescence quenching of RG13(1329W/A96W) upon addition of maltose was insufficient to accurately determine a Kd by this method. The dissociation constant for maltose and RG13(I329W) in the presence of saturating carbenicillin (2 mM) was determined by measuring the initial rate of carbenicillin hydrolysis as a function of maltose concentration. The apparent dissociation constant in the presence of subsaturating concentrations of nitrocefin (25 μM) for all three proteins was determined by measuring the initial rate of nitrocefin hydrolysis as a function of maltose concentration."}, "[4]": {"experiment": "Steady state kinetics of nitrocefin hydrolysis, purified RG13 proteins, 25° C.", "type": "biochemical", "details": "for Km / kcat: nitrocefin", "experimental": "All kinetic assays were performed at 25° C. in the presence of 100 mM sodium phosphate buffer, pH 7.0. Ten μl of enzyme stock was added to 1.59 ml buffer (containing the saccharide, if desired). After incubation for 30 seconds, 0.4 ml of 5× substrate was added and the absorbance at the appropriate wavelength was recorded using the Cary50 UV-VIS spectrophotometer. The wavelength monitored was 486 nm, 240 nm, and 232 nm for nitrocefin, carbenicillin, and ampicillin respectively. From the initial rate of reaction the kinetic constants were determined using Eadie-Hofstee plots. […] The rate data was consistent with a small hysteretic effect (Brennan et al. 1994) and not substrate inhibition as preincubation of the enzyme with the substrate for one minute prevented the lag from occurring upon addition of more substrate. Therefore, the steady state parameters for nitrocefin hydrolysis in the absence of maltose were determined by measuring the rate at 1-2 minutes (well after the lag) and correcting the substrate concentration by subtracting the amount of substrate hydrolyzed. In all cases the extent of reaction at the point the rate was measured was less than 25%. In the presence of maltose, no lag was observed."}, "DH5α-E cells": {"test_system": "DH5α-E cells", "experiment": "In vivo characterization: MIC of ampicillin for DH5α-E cells expressing the protein", "type": "cell-based, E. coli", "details": "LB plates, 37° C., 20 hours", "experimental": "Overnight inoculums of DH5α-E cells expressing RG13, BLA or BLA(W208G) were diluted into LB media and plated on LB plates, either in the absence or presence of 50 μM maltose, in the presence of increasing amounts of ampicillin. Ampicillin was present in the plates at the following concentrations: 0, 2, 4, 8, 16, 32, 64, 128, 256, 512, and 2000 μg/ml. Cells were plated at approximately 1000 CFU (no antibiotic) per plate. The plates were incubated at 37° C. for 20 hours. The minimum inhibitory concentration (MIC) was defined as the lowest ampicillin concentration at which no colonies were present, or that at which the number of colonies present was <1% of the number of colonies at the next lowest level of ampicillin."}, "[5]": {"details": "cited from earlier work"}, "[6]": {"details": "effector maltose 5 mM (saturating)"}, "[7]": {"details": "effector maltose 5 mM (saturating), 25° C."}},
  "note": "Where two headings read alike, the source gives them in different places.",
  "data": [
    {"molecule": "IFD-5-7: MBP[1-165]-BLA[110-286]-DKS-BLA[24-107]-MBP[164-370]; SEQ ID NO: 67", "values": [
      {"measurement": "Switching effect: percent change in velocity of nitrocefin hydrolysis in the presence of 5 mM maltose", "setting": "[1]", "value": "+96%"}
    ]},
    {"molecule": "IFD-5-15: MBP[1-165]-BLA[168-286]-DKS-BLA[24-170]-MBP[164-370]; SEQ ID NO: 71", "values": [
      {"measurement": "Switching effect: percent change in velocity of nitrocefin hydrolysis in the presence of 5 mM maltose", "setting": "[1]", "value": "+97%"}
    ]},
    {"molecule": "IFG-5-277: MBP[1-165]-BLA[218-286]-GSGGG-BLA[24-215]-MBP[164-370]; maltose is a negative effector; SEQ ID NO: 69", "values": [
      {"measurement": "Switching effect: percent change in velocity of nitrocefin hydrolysis in the presence of 5 mM maltose", "setting": "[1]", "value": "−250", "unit": "%"},
      {"measurement": "Effect of maltose on catalytic activity (magnitude of switching)", "setting": "[2]", "value": "negative effector"}
    ]},
    {"molecule": "RG13 I329W/A96W: RG13 with MBP hinge mutations I329W and A96W; SEQ ID NO: 65", "values": [
      {"measurement": "Kd", "setting": "[3]", "value": "170 ± 20", "unit": "nM"},
      {"measurement": "Km Ratio (with effector)/(without effector)", "setting": "[4]; effector maltose 5 mM", "value": "0.23 ± 0.04"},
      {"measurement": "kcat Ratio (with effector)/(without effector)", "setting": "[4]; [6]", "value": "1.5 ± 0.2"},
      {"measurement": "kcat/Km Ratio (with effector)/(without effector)", "setting": "[4]; [6]", "value": "6.4 ± 1.3"},
      {"measurement": "Km", "setting": "[4]; [7]", "value": "60 ± 4", "unit": "µM"},
      {"measurement": "kcat", "setting": "[4]; [7]", "value": "530 ± 20", "unit": "s⁻¹"},
      {"measurement": "Km", "setting": "[4]; no effector, pH 7.0, 25° C.", "value": "260 ± 40", "unit": "µM"},
      {"measurement": "kcat", "setting": "[4]; no effector, pH 7.0, 25° C.", "value": "360 ± 40", "unit": "s⁻¹"}
    ]},
    {"molecule": "BLA: penicillin-hydrolyzing enzyme TEM1 β-lactamase, parent enzyme of the switches (protein, UniProt P62593 24-286, looked up) Beta-lactamase TEM: HPETLVKVKDAEDQLGARVGYIELDLNSGKILESFRPEERFPMMSTFKVLLCGAVLSRVDAGQEQLGRRIHYSQNDLVEYSPVTEKHLTDGMTVRELCSAAITMSDNTAANLLLTTIGGPKELTAFLHNMGDHVTRLDRWEPELNEAIPNDERDTTMPAAMATTLRKLLTGELLTLASRQQLIDWMEADKVAGPLLRSALPAGWFIADKSGAGERGSRGIIAALGPDGKPSRIVVIYTTGSQATMDERNRQIAEIGASLIKHW", "values": [
      {"measurement": "Minimum Inhibitory Concentration of Ampicillin", "setting": "DH5α-E cells; 50 μM maltose", "value": "≧2000 μg/ml"},
      {"measurement": "Minimum Inhibitory Concentration of Ampicillin", "setting": "DH5α-E cells; No maltose", "value": "≧2000 μg/ml"},
      {"measurement": "kcat", "setting": "[5]; previously reported for BLA at 24° C. (Sigal et al. 1984)", "value": 900, "unit": "s⁻¹"},
      {"measurement": "Km", "setting": "[5]; previously reported for BLA at 24° C. (Sigal et al. 1984), read-out: Km", "value": 110, "unit": "µM"},
      {"measurement": "kcat", "setting": "[5]; previously reported, 30° C. (Raquet et al. 1994)", "value": 930, "unit": "s⁻¹"},
      {"measurement": "Km", "setting": "[5]; previously reported, 30° C. (Raquet et al. 1994), read-out: Km", "value": 52, "unit": "µM"},
      {"measurement": "Km", "setting": "[5]; substrate ampicillin (Raquet et al. 1994), read-out: Km for TEM-1 β-lactamase", "value": 32, "unit": "µM"},
      {"measurement": "Km", "setting": "[5]; substrate benzylpenicillin (Raquet et al. 1994), read-out: Km for TEM-1 β-lactamase", "value": 19, "unit": "µM"},
      {"measurement": "Km", "setting": "[5]; substrate cephalothin (Raquet et al. 1994), read-out: Km for TEM-1 β-lactamase", "value": 246, "unit": "µM"},
      {"measurement": "Km", "setting": "[5]; substrate oxacillin (Raquet et al. 1994), read-out: Km for TEM-1 β-lactamase", "value": 3, "unit": "µM"},
      {"measurement": "Effect of maltose on wild type BLA enzymatic activity", "setting": "[5]; with or without an equimolar amount of MBP (Guntas et al. 2004)", "value": "no effect"}
    ]}
  ]
}
